What was measured:
[1] = target: the molecule itself; assay: crystal structure; DIR-cf1: protein in 15 mM Tris-HCl pH 7.4, 1 mM DTT, 6.25 mg/mL; reservoir 0.2 M CaCl2, 20% (w/v) PEG 3350; sitting drop, 20 °C; space group P212121; three chains per asymmetric unit
[2] = target: the molecule itself; assay: crystal structure; JRL-cf1: protein in 25 mM sodium phosphate pH 7.0, 10 mg/mL; reservoir 0.05 M MES pH 6.0, 28% (w/v) PEG 3350; sitting drop, 20 °C; non-reducing; space group P212121; two chains per asymmetric unit
[3] = target: the molecule itself; assay: crystal structure; JRL-cf2: protein in 25 mM sodium phosphate pH 7.0, 11 mg/mL; reservoir 0.2 M NH4I, 20% (w/v) PEG 3350; sitting drop, 20 °C; space group C2221; two chains per asymmetric unit

B1: OsJAC1-DIR domain (His-tag cleaved by thrombin) (domain or fragment, rice (Oryza sativa))
chain: SKLQITPCGMLVQGNQINFTKLYLHHTPAGPEQNQSAVTSNDKKTGLGCIVVNNWSVYDGIGSDAKLVAYAKGLHVFAGAWHNSFSLVFEDERLKGSTLQVMGLIVEEGDWAIVGGTGQFAMATGVILKKMQEQKQYGNIIELTIHGFCPLLKGS
notes: DIR (dirigent) domain, the N-terminal domain of the monocot chimeric jacalin OsJAC1, rice (Oryza sativa); traced residues include Lys6 (chain B), and the C-terminus of the model of chain A (cf1) is at Leu155; also called DIR-cf1; DIR-cf2; source: prepared as previously described in Huwa et al. (2021) [25]; His-tag removed with thrombin, no further purification
For B1, the “stoichiometry N” value [1] was 3.

B2: OsJAC1-JRL domain (His-tagged, crystal form 1) (domain or fragment, rice (Oryza sativa))
chain: QCPVTKIGPWGSSHEGTVQDITESPKRLESITLYHGWSVDSISFTYLDHAGEKHKAGPWGGPGGDPIMIEFGSSEFLKEVSGTFGPYEGSTVITSINFITNKQTYGPFGRQEGTPFSVPAQNNSSIVGFFGRSGKYINAVGVYVQPI
modifications: symmetric inter-subunit disulfide bond at Cys161 (Cys161-Cys161)
notes: JRL (jacalin-related lectin) domain of the monocot chimeric jacalin OsJAC1, rice (Oryza sativa); the model's termini are Gln160 and Pro305 of full-length OsJAC1 (residue range 160-306 used for superposition); also called JRL-cf1; OsJAC1-JRL (cf1); source: prepared as previously described in Huwa et al. (2021) [25]
B2 was tested, and the “stoichiometry N” value [2] was 2.

B3: OsJAC1-JRL domain (Strep-tagged, crystal form 2) (domain or fragment, rice (Oryza sativa))
chain: B2 chain
modifications: symmetric inter-subunit disulfide bond at Cys161 (Cys161-Cys161)
notes: JRL (jacalin-related lectin) domain of the monocot chimeric jacalin OsJAC1, rice (Oryza sativa); residue range 160-306 of full-length OsJAC1 used for superposition; also called JRL-cf2; OsJAC1-JRL (cf2); source: prepared as previously described in Huwa et al. (2021) [25]
B3 was tested, and the “stoichiometry N” value [3] was 2.
